The values that follow come from PMC8826823, “The Zinc Finger Transcription Factor BbCmr1 Regulates Conidium Maturation in Beauveria bassiana”.

The target in one series is T1, BbBrlA (Beauveria bassiana, UniProt J5JC27 1-370).
T1 sequence: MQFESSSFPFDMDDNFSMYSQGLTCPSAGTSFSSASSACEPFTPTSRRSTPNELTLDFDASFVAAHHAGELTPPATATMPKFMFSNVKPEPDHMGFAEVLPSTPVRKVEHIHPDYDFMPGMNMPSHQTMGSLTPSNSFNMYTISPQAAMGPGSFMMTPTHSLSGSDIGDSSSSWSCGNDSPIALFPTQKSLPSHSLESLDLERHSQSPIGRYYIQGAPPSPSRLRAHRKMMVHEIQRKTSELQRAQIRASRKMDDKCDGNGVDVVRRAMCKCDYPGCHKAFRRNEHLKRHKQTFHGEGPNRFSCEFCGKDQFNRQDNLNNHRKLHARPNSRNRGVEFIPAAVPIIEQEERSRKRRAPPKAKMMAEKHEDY
The experiment in a line: EMSA; shift lost with 200-fold unlabeled probe; LightShift Chemiluminescent EMSA kit, manufacturer's instructions; buffer, salt, pH and temperature not given. To be noted: protein: recombinant; tags: GST; label: biotin; blunt. In general terms: Mobility shift assays separate free from complexed probe on a gel.

A further series concerns the target T2, BbCmr1 (Beauveria bassiana, UniProt J4VZG7 1-764).
T2 sequence: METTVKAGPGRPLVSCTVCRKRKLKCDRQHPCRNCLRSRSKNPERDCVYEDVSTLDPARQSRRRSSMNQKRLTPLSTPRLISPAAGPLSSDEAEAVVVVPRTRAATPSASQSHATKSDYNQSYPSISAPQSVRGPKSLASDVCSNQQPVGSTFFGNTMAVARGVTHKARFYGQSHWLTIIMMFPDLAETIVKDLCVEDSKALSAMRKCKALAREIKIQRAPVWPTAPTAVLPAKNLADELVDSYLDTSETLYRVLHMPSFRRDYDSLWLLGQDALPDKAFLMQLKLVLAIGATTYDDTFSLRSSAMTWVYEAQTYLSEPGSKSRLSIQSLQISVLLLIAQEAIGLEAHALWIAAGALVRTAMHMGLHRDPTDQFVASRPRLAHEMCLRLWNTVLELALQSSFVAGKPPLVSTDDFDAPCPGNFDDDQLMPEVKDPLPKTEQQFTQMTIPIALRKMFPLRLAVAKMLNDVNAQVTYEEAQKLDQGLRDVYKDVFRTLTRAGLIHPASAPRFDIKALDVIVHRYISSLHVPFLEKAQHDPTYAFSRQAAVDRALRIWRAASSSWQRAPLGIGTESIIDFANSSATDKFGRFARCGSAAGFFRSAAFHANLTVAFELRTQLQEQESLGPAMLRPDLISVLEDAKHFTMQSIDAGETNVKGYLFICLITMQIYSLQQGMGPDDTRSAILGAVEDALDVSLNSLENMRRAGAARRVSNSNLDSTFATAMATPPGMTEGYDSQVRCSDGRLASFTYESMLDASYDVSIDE
The experiment in a line: EMSA; 0.5-2 ug protein, 10 ng probe; concentration-dependent; complex decreased by 200-800-fold unlabeled probe; LightShift Chemiluminescent EMSA kit, manufacturer's instructions; buffer, salt, pH and temperature not given. To be noted: protein: recombinant; tags: N-terminal GST (pGEX-6p); chain copies: 2; label: biotin; blunt.

B1: Bbcmr1 promoter probe (cmr1-EMSA) (dsDNA)
DNA 1: CGGAATTACGATATTACCCCTAGAGACAATTTTTATTATA
DNA 2: TATAATAAAAATTGTCTCTAGGGGTAATATCGTAATTCCG
On to B1, for which the binding result with BbBrlA is recorded as “binds”.

B2: BbbrlA promoter probe (brlA-EMSA) (dsDNA)
DNA 1: GGAAAAAAAAAAAAGAAAAGGAACCCACAACTCAAGTCT
DNA 2: AGACTTGAGTTGTGGGTTCCTTTTCTTTTTTTTTTTTCC
For the molecule B2, the binding result with BbCmr1 is on record as “binds”.
